According to US10221439B2, “Sensors, methods and kits for detecting nicotinamide adenine dinucleotides” (Max-Planck-Gesellschaft zur Förderung der Wissenschaften …, priority 2015, dated 2019):

Test: Titration of NAD-specific FRET sensor with NAD^+ and NADP^+
Type: binding
Method: In order to evaluate, that these mutations were sufficient to fully switch the specificity of the cofactor binding site of SPR from NADP(H) to NAD(H), we prepared titration experiments according to the similar procedure explained herein (example 3). The labelled sensor were diluted in buffer solution containing defined concentrations of NAD^+ and NADP^+ and measure with the fluorimeter (TECAN) (FIG. 4).

B1: SPR mutant with Asp^41 and Ala^42: initial trial SPR mutant sensor for NAD^+ (conjugate, UniProt P35270 1-261, looked up, variant A41D R42A)
Sepiapterin reductase: MEGGLGRAVCLLTGASRGFGRTLAPLLASLLSPGSVLVLSDANDEALRQLEAELGAERSGLRVVRVPADLGAEAGLQQLLGALRELPRPKGLQRLLLINNAGSLGDVSKGFVDLSDSTQVNNYWALNLTSMLCLTSSVLKAFPDSPGLNRTVVNISSLCALQPFKGWALYCAGKAARDMLFQVLALEEPNVRVLNYAPGPLDTDMQQLARETSVDPDMRKGLQELKAKGKLVDCKVSAQKLLSLLEKDEFKSGAHVDFYDK
affinity and specificity for NAD^+: low affinity, but high specificity for NAD^+
